Measurements: the DeepSol protein solubility set

Assay: soluble on expression in E. coli; label from the status in PepcDB or PDB records

Sequence	soluble on expression in E. coli
MVVIANAHNELIHDAVLDYYGKRLATCSSDKTIKIFEVEGETHKLIDTLTGHEGPVWRVDWAHPKFGTILASCSYDGKVLIWKEENGRWSQIAVHAVHSASVNSVQWAPHEYGPLLLVASSDGKVSVVEFKENGTTSPIIIDAHAIGVNSASWAPATIEEDGEHNGTKESRKFVTGGADNLVKIWKYNSDAQTYVLESTLEGHSDWVRDVAWSPTVLLRSYLASVSQDRTCIIWTQDNEQGPWKKTLLKEEKFPDVLWRASWSLSGNVLALSGGDNKVTLWKENLEGKWEPAGEVHQGGGGSGGGGATSKEFDGPCQNEIDLLFSECNDEIDNAKLIMKERRFTASYTFAKFSTGSMLLTKDIVGKSGVSIKRLPTELQRKFLFDDVYLDKEIEKVTIEARKSNPYPQISESSLLFKDALDYMEKTSSDYNLWKLSSILFDPVSYPYKTDNDQVKMALLKKERHCRLTSWIVSQIGPEIEEKIRNSSNEIEQIFLYLLLNDVVRASKLAIESKNGHLSVLISYLGSNDPRIRDLAELQLQKWSTGGCSIDKNISKIYKLLSGSPFEGLFSLKELESEFSWLCLLNLTLCYGQIDEYSLESLVQSHLDKFSLPYDDPIGVIFQLYAANENTEKLYKEVRQRTNALDVQFCWYLIQTLRFNGTRVFSKETSDEATFAFAAQLEFAQLHGHSLFVSCFLNDDKAAEDTIKRLVMREITLLRASTNDHILNRLKIPSQLIFNAQALKDRYEGNYLSE	soluble
MSLSKAKTLYEKIYDAHVVVAAPGETPILYIDRHLVHEVTSPQAFDGLREKGRPVRQVSKTFATMDHNVSTTTKDINASGEMARIQMQTLSKNCEEFGVTLYDINHKYQGIVHVMGPELGITLPGMTIVCGDSHTATHGAFGSLAFGIGTSEVEHVLATQTLKQGRAKTMKIEVRGKVAPGITAKDIVLAIIGKTTAAGGTGYVVEFCGEAIRDLSMEGRMTVCNMAIELGAKAGLIAPDATTFNYIKGRKFAPQGSDWDAAVDYWQTLKTDEDAQFDAVVTLEASEIKPQVTWGTNPGQVIAVDEPIPSPSQFADPVERSSAEKALAYMGLEAGKMLSDYKVDKVFVGSCTNSRIEDMRAAAAVAKGKKVASHVQALIVPGSEQVKAQAEAEGLDKIFIEAGFEWRLPGCSMCLAMNNDRLGPGERCASTSNRNFEGRQGRDGRTHLVSPAMAAAAAIAGHFVDIRQEGHHHHHH	soluble
MGSDKIHHHHHHMSKNIKTPTNQKVLTNVAVVRMKKTGKRFEIACYKNKVVNWRNKSEKDIDEVLQTHTVFSNVSKGQLSKKEELIAAFGIEDQLEIYSRQRRLASVGKRASGGFRSIAERGSFFLLKNVSQLIASMVVNPETKRPVPPSVIDKALQEMHFSLKPNRSSKQQALDAIPKLRETLKIERAKMKIRVAIPTKEAKSVHTKLKTLFSDVEVDDWQDGSLEMVGLIEPGSFRALDDLVRNETKGHGRLEILSLKDVVEGELQIS	not soluble
LKPHIAVAISGSIYNEAVIKEAFHIAQKEHAKFTAIYIDVFEKNRQYKDSQKQVHQHLMLAKSLGAKVKVVYSQTVALGLDEWCKNQDVTKLIIGQHIRNKWRDFFNTPLIDHLMSFEHS	not soluble
MSLEVTTPGKLFIAGEYAVVEPGHPAIIVAVDQFVTVTVEETTDEGSIQSAQYSSLPIRWTRRNGELVLDIRENPFHYVLAAIHLTEKYAQEQNKELSFYHLKVTSELDSSNGRKYGLGSSGAVTVGTVKALNIFYDLGLENEEIFKLSALAHLAVQGNGSCGDIAASCYGGWIAFSTFDHDWVNQKVATETLTDLLAMDWPELMIFPLKVPKQLRLLIGWTGSPASTSDLVDRVHQSKEEKQAAYEQFLMKSRLCVETMINGFNTGKISVIQKQITKNRQLLAELSSLTGVVIETEALKNLCDLAESYTGAAKSSGAGGGDCGIVIFRQKSGILPLMTAWEKDGITPLPLHVYTYGQKECKEKHEGHHHHHH	soluble
MSQIAGYFSSDSGVYPNPVKDVLNIKHEGDFGVRIFDFSGRLVLSMENTRMIGVKVLTAGAYVIKLMTQGSTPAERFIKL	not soluble
NPHLLVKYHSGFFVDGKFLCCQQSCKAAPGCTLWEAY	soluble
MGSDKIHHHHHHMKVALRKTIGERLLELAKQDEKIVVVTSDARGSAAIADFFKVFPERSIEVGIAEQTAAGVAAGLALCGKKAWVFGPACFYSARNLEQIKNDIAYSDANVKIVAVSGGVSYGPLGSTHHALHDVAVMRAIPNLKVLLPSDAVLAAAILEQLLKDEKPVYMRTGRNPVPVIYSRDEKFEVGRAITLKEGNDITIIATGEVVWRALEAAKILEKEGISARVIDMFTVKPLDEEAVFRAARETGRIVTVEEHSIFGGLGGAVAEFLSQNLPTPMKILGIPDEYPVTGTQDEVLKHYGLAPEGIAKTVLEWFKEGN	not soluble
MSLKYLVMNAGRLFLSLLKESGVNKIFIVSGTDYASLIEAKVEDSSLPEFEIVPHEITAISTAIGYALGNKLSAVAVHTTPGTANALGGIMSAFTSRIPLLVIAGRSPYTEKGNTASRNLRIHWTQEARDQGELVRQYVKYDFEIRMADQLPAVVSRAIQIMMSEPRGPVYIVLPREVSIQEVNEARRIPMDYYEPAPSPDKINKAKEMLEKSERPLIITWRAGRRKEWFESLRRFADNYNIPVLNYAGEVLNYPSSGPMALDRFDLRNSDLLLVVEAEVPYFPKKIDLDIPIVKIDVDPSYSYIPYYGFRCDLCIQSTPSNFFDYISIRPKSYDEIKELRAKQEEYKKQEIERLKDKKPIHPKYLSYEIGIVASEYNLVIFNEYQFNPRYARLNEFGSYFADLSVGYLGFALGAGVGYKIATNKDVLITTGDGSFIFGVPEAFYYVASKYPTMVVIYDNGGWLASAEAVDEVFPEGLAKSKKYYPGADFDRRFEIGKTVETFHGYYELVEDPWEIKPALIRGLEKMRRENKIAVIQVIVDKVREGHHHHHH	not soluble
GPGSMKRFGIWTRPSLGRRSFYAGLDDSRVMRLRRSNTTLNKPRGRDAFSLAFEKRIHLLPLTQVGDLYGLPVPPSAPGESSGGAAEETIRVLVVDLLLLEDVESLISFPASNPLYYEDWPTVSDNSEGEVPSDRRSGISSSLALGESGFSLPSSNKRHLRQYGDTTLLRNSFVREAAHGVSAQFHTAICINPFIDVDRFRREEAQVEMISAYRNILYEAAEVPDGRADVIRIPALCCDTCGPRFYHEIGKLNQQSLIKGFHRIGSEAKETLMLNPKFIVEVYVPLPFLQQFQRAFLEDAWETPESTLNPGRTALYPGLAPPRSLLPLEGWIGKRPELVEAIETEGRSLMSGVKYSLDGKPIEEREVLAELRVFGREKEQEEMLKREEETATQQGLEVAPNGNTVAPLRAGIDQN	not soluble
MSGNIGANPAIIKLSWIEAAVDAHKTLNFEPSGRKRIGFDVADSGTDKCANVYRHGSVVFWADEWKAKEDELLKSCQRTYQAALEREADIVYDSIGVGASAGAKFSEINADRKSENAYARRVNYQRFNAGAGVHEPDDEYNGIPNKDFFANLKAQAWWLTVSEIRLTPLTTENSILWMS	not soluble
MNEEGGYLGAMTYQCLYSPVMEKIKQQHRDDPRASLALNKLHTALTTCEQASPSFLYDFTKVLLDDSELSVNLQESYLRMHDTSPTNDLIVSGYEQNADYKELTKRAIELRRVLSRVPEEMSDRHAFLETIKLIASSIKKLLEAINAVYRIVPLTAQPAVEKRKREFVHYSKRFSNTLKTYFKDQNANQVSVSANQLVFQTTMIVRTINEKLRRG	not soluble
MQTNLERIKKHIEKLDTFTATPGQGTTRLTYSKEDLDARNYLKQEMAKVGLTVSEDAIGNIYGRLEGESPDLPAVIVGSHFDSVPNGGAFDGPAGVITGLEVASVFHEQQIKPHFPLEIIAMVEEEGSRFGAGLLASRAITGKVTTEMLHEMKDIDGITATDAMAKLGFNANRVHRAIRTKESVKAFIELHIEQGPILENASEDVALVDTVVGLTQIKVTVKGQAGHAGTTPMLDRKDALVSAVEILGQLPELAIQEGGGTVLTVGKLNVYPNGANVIPDKVIFTVDIRAKDEIHVQNTLAKTKEIIQATEKNGITCEIKDMIYQQPTHLSKEIHQALTESADQLGFKYRTMVSGAGHDAMIFASLTEVGLIFVPSHNGISHAPEEWTDYDKLQKGIEVVLKTVKKWTEESANESENKTNSFK	not soluble
MGSDKIHHHHHHMPDMSMFGILNTALTGIHAHKLAMNIVGHNIANASTPGYSRQRPVIEANPPIPLTTLTQPSFPLQMGTGARVKTIVRLRDAFLDVQYRQVNNRYNYWDTVLSNLHFIEQLLAEPGEDGIRSLVDNFWNAFKEVMSDPSSTASKAEVVSRAQQMVSQIKDLYGRLEQLREDIDAEIVQRVSEINQMIKRLADLNNKIRTSMMLNSPPNDLLDERDRILDELSNLANINYTEAEDGQITLRIGNQIVLNGSTYRELRALERPYGKGYHELFVGNSQLILSDGKLKALIDLRDSSIVKYMRKLDEFVLFITDSLNLVHRDGFESNGVTTNLNFFKKIEAFSDDPSIFRIKGNRKLEMGPYHTVTGLHSANSQAEIEGRRFNSNDVVLSFDGGSSNVLNISAGTTIGDLVGSWNLLGTSLKVGTHAGGYRLYLEDSTGSLRNRLFLSLGDSLSQMGFDTETKGYITIKESDLSGLSSGVYNINVEYILEDGTRQTETISVDLSSGVNLSNIEASINSSSHLRAQIYADPSTGENMLVIVPDEQLNFDPSAVKVLSDDDFFTESNAFVRNYEVLKYKDTLENIFYGQTGFDPTRPFTITINSTDIEIDPAVDTLETLVEKINEKNTGVLADLTPHHSLVFRASSLYDFDLRMMEIKGPQGFFEAVGFVDPDGDPTTFDWNTSFTLVSKSDDFTTLSERFKVADILTFDRAPYDEPLNIVNQFEVSSSLATNPANLAVDVGYALENSDWNATSIKPSGGANPELLETIQNLYTRKMLSNGKESFYEFFGGVVSELGVEAETASNLKNNTEILRQEIDNAREEVKGVSLDEEMANMIEYQHAFSAAAKVITAVDQMIQTVINMVG	not soluble
MRMRHKPWADDFLAENADIAISNPADYKGKWNTVFGNDNPIHIEVGTGKGQFISGMAKQNPDINYIGIELFKSVIVTAVQKVKDSEAQNVKLLNIDADTLTDVFEPGEVKRVYLNFSDPWPKKRHEKRRLTYSHFLKKYEEVMGKGGSIHFKTDNRGLFEYSLKSFSEYGLLLTYVSLDLHNSNLEGNIMTEYEEKFSALGQPIYRAEVEWRTLEHHHHHH	not soluble
MKYKRVLLKLSGEFLTRNGFGIEPEATQALAREIKAAYDTGVQLAIVIGAGNLWRGARQGVGMDRATADYIGMLATIMNALALQDALESLGVPTRVQTALTITQVAEPYIRRRALRHLEKERIVIFGGGTGNPFFSTDTAAALRALEVGAEVVLMAKNKVDGVYSDDPRKNPEAVRFDELTYLEVLNRGLQVMDTTAITLCMEAGLPIVVFDIFKPGALVGIIQGEKVGTLIH	soluble
MKKSYLVTPLVAGALILPAALPATAAQASAPAPAAVSTVNKTALTTDQIKAERSALNSRINMLQETQKAIPGSQYADQIEDLIKTALDLSGAIDTIAHGGVPAYDPATIVPRIHLAIDAADAIKTGNTTLQHKVKKAHVELGLEIAKASIVAINPASSVAQVQDEIKALKARIDKVSAYPDLSKDDTATIAYKQTLRKTIHEVRVGRNKNIVGKKDQAVVDTLNKEISKADKVRANAKSTVAQVDTAVDQLRAAYQTALNAPDKAKKLEHHHHHH	not soluble
MRVAVLGAGAWGTALAVLLASKGVPTRLWARRKAQAEALKAMRENRDYLPGVALPAYLYPTHDPEEALEGAELAVLAVPSKALRETVAGLPPAPWYVSATKGLFYGEEGVRTPAEVVEALTQRPVVALSGPNHAEEVARFLPTASVAAGPEDLARRVQALFSGPTFRVYTSRDRRGVELGGAVKNVLALAAGMVDGLRLGDNAKAALLTRGLKEMVRFGTALGGEEATFYGLAGLGDLLATAYSLHSRNRMAGESLVRGVDREALEARGVVEGLYAVKAMVAWGKEQGVELPVAEAVHRVAHEGLDPLAALKALMAREPKEE	soluble
